Measured values as given in article PMC10803263, “General transcription factor from Escherichia coli with a distinct mechanism of action” (Nature Structural & Molecular Biology, 2023).

Tests used:
[1] = target: T1, RNA polymerase β subunit (in purified RNAP) (E. coli, UniProt P0A8V2 1-1342); experiment: cryo-EM structure; purified Eσ^70 incubated with ssrA promoter DNA (threefold excess), then CedA (fivefold molar excess over RNAP); complex repurified on Superose 6 Increase in 30 mM HEPES pH 8.0, 100 mM KCl, 5 mM MgCl2, 0.5 mM TCEP; 2.76 Å; conditions: both partners purified
T1 construct: RNA polymerase β subunit (RpoB), WT E. coli; Stood in the assay as a subunit of the purified RNAPσ70 holoenzyme; also called β-lobe/βi4
T1 sequence (P0A8V2 whole entry): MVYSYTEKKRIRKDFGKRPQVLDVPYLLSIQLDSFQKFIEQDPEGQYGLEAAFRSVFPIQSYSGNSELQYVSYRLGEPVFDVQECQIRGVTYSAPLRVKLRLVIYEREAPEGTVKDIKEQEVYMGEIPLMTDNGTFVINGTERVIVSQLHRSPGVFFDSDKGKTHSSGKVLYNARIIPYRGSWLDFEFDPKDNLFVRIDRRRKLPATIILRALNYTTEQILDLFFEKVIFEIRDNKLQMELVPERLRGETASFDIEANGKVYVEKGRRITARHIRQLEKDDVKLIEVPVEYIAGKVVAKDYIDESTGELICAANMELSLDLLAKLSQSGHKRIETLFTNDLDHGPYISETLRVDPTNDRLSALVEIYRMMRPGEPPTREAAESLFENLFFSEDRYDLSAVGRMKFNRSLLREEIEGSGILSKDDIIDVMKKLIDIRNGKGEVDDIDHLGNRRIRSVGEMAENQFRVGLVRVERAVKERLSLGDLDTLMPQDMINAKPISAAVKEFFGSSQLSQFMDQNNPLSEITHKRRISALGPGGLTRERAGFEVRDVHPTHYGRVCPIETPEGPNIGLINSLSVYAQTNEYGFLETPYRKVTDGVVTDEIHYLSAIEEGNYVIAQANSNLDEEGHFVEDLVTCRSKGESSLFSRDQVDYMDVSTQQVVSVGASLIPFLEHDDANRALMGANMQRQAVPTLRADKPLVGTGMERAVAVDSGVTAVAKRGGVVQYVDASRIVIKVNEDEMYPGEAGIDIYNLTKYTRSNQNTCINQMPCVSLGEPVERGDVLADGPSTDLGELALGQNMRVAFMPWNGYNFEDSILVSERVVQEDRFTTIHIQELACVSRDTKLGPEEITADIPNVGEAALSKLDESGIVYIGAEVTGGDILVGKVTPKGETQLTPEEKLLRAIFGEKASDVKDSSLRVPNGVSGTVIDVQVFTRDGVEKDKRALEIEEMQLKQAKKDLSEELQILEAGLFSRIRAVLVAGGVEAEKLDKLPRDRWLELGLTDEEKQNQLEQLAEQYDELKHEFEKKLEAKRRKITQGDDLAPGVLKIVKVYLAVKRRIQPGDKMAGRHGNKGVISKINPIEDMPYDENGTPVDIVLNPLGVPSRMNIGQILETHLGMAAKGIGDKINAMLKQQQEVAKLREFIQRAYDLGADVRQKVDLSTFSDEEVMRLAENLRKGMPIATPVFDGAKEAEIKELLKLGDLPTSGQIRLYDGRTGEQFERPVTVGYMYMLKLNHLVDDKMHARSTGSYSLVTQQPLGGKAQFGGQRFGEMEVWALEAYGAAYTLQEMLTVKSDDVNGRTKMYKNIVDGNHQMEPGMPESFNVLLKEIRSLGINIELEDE

σ^70 (purified) = target: T2, σ^70 (purified) (E. coli, UniProt P00579 1-613); experiment: as above; conditions: both partners purified
T2 construct: RNA polymerase sigma factor σ70 (RpoD), WT E. coli; also called RpoD
T2 sequence (P00579 whole entry): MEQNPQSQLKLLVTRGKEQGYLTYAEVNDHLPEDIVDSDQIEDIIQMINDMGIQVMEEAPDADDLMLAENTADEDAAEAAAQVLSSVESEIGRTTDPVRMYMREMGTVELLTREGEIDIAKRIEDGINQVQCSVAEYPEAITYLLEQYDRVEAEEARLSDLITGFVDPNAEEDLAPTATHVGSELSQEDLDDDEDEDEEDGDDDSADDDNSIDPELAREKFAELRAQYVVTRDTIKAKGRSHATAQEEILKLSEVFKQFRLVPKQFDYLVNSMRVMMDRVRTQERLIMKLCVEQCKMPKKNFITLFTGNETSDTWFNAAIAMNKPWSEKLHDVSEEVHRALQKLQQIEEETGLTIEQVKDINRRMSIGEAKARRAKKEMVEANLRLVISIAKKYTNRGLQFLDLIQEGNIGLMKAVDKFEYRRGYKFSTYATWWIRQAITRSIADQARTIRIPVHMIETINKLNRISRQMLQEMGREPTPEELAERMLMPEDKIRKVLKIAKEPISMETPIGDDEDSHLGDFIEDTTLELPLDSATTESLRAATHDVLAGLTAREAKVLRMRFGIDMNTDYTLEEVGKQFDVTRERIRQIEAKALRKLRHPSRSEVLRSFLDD

B1: CedA (purified recombinant) (natural protein, E. coli, UniProt P0AE60 1-80, looked up)
chain: MKKPLRQQNRQIISYVPRTEPAPPEHAIKMDSFRDVWMLRGKYVAFVLMGESFLRSPAFTVPESAQRWANQIRQEGEVTE
notes: CedA, E. coli; the open reading frame of cedA amplified from the MG1655 chromosome; also called WT CedA; source: E. coli BL21(DE3), pSumoH10-cedA, purified (HisTrap, Ulp1 tag removal, HiTrap SP, Superdex 75); not shown: 10× His, N-terminal, cleaved; SUMO, N-terminal, cleaved
Does B1 bind [1]?
Result: binds

Does B1 bind (σ^70 (purified))?
Result: binds
